From the supplement of paper PMC6757056
± gives the standard deviation of the averaged measurements.

B1: library; a variant is named by its letters at N, in order (parent)
chain: GCUGUCACCGGUGUAUUACCCUAGUGGUCGACCGGUCUGAUGAGUCUNNNNNNAGACGAAACAGC

How the values were obtained:
hypoxanthine [1] = variants of: B1; assay: FACS-Seq fitted mean relative fluorescence mCherry/BFP without ligand (log10 relative fluorescence); ligand: hypoxanthine (xanthine aptamer); higher = higher reporter protein expression; settings: HEK293T, ligand present: no
Protocol: (§1)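 Hammerhead (sTRSV) ribozyme switch libraries with a ligand aptamer grafted on stem I and a randomized N4-6 loop II, cloned into the 3' UTR of mCherry and transiently transfected into HEK293T cells; RNA-Seq 72 h post transfection with ligand added 1 h before transfection; RNA read count / plasmid DNA read count normalized to the non-cleaving sTRSVctl (x100), log10; sequences with >100 DNA reads. FACS-Seq: lentiviral library sorted into 6 bins after 48 h ligand, log-normal fit mean of mCherry/BFP scaled to controls. Printed sequences are partial switch sequences.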

hypoxanthine [2] = variants of: B1; assay: normalized RNA/DNA level with ligand (relative to sTRSVctl = 100) (log10 (% of sTRSVctl)); ligand: hypoxanthine (xanthine aptamer); higher = less ribozyme self-cleavage, higher mRNA level; settings: ligand concentration (+) RNA-Seq: 5 mM, HEK293T, reporter: mCherry (pCS4076), ligand present: yes
Protocol: as §1

hypoxanthine [3] = variants of: B1; assay: normalized RNA/DNA level without ligand (relative to sTRSVctl = 100) (log10 (% of sTRSVctl)); ligand: hypoxanthine (xanthine aptamer); higher = less ribozyme self-cleavage, higher mRNA level; settings: HEK293T, reporter: mCherry (pCS4076), ligand present: no
Protocol: as §1

hypoxanthine [4] = variants of: B1; assay: FACS-Seq fitted mean relative fluorescence mCherry/BFP with ligand (log10 relative fluorescence); ligand: hypoxanthine (xanthine aptamer); ligand concentration (+) FACS-Seq: 5 mM; higher = higher reporter protein expression; settings: HEK293T, ligand present: yes
Protocol: as §1

GCUGUCACCGGUGUAUUACCCUAGUGGUCGACCGGUCUGAUGAGUCUUAACAAAGACGAAACAGC
FACS-Seq fitted mean (log10) (hypoxanthine [1]): -0.143 ± 0.032
normalized RNA/DNA level with ligand (log10) (hypoxanthine [2]): 1.9154 ± 0.0012
normalized RNA/DNA level without ligand (log10) (hypoxanthine [3]): 1.7546 ± 0.00028
FACS-Seq fitted mean (log10) (hypoxanthine [4]): -0.012 ± 0.012

GCUGUCACCGGUGUAUUACCCUAGUGGUCGACCGGUCUGAUGAGUCUCAAAUAAGACGAAACAGC
FACS-Seq fitted mean (log10) (hypoxanthine [1]): 0.317 ± 0.014
normalized RNA/DNA level with ligand (log10) (hypoxanthine [2]): 1.9 ± 0.06
normalized RNA/DNA level without ligand (log10) (hypoxanthine [3]): 1.7391 ± 0.00044
FACS-Seq fitted mean (log10) (hypoxanthine [4]): 0.196 ± 0.037

GCUGUCACCGGUGUAUUACCCUAGUGGUCGACCGGUCUGAUGAGUCUCAAAUCAGACGAAACAGC
FACS-Seq fitted mean (log10) (hypoxanthine [1]): 0.445 ± 0.1
normalized RNA/DNA level with ligand (log10) (hypoxanthine [2]): 1.95 ± 0.039
normalized RNA/DNA level without ligand (log10) (hypoxanthine [3]): 1.927 ± 0.0086
FACS-Seq fitted mean (log10) (hypoxanthine [4]): 0.495 ± 0.037

GCUGUCACCGGUGUAUUACCCUAGUGGUCGACCGGUCUGAUGAGUCUUAAAUGAGACGAAACAGC
FACS-Seq fitted mean (log10) (hypoxanthine [1]): 0.306 ± 0.023
normalized RNA/DNA level with ligand (log10) (hypoxanthine [2]): 1.936 ± 0.015
normalized RNA/DNA level without ligand (log10) (hypoxanthine [3]): 1.73 ± 0.035
FACS-Seq fitted mean (log10) (hypoxanthine [4]): 0.483 ± 0.081

GCUGUCACCGGUGUAUUACCCUAGUGGUCGACCGGUCUGAUGAGUCUUAAAUAAGACGAAACAGC
FACS-Seq fitted mean (log10) (hypoxanthine [1]): 0.398 ± 0.012
normalized RNA/DNA level with ligand (log10) (hypoxanthine [2]): 1.92 ± 0.026
normalized RNA/DNA level without ligand (log10) (hypoxanthine [3]): 1.836 ± 0.002
FACS-Seq fitted mean (log10) (hypoxanthine [4]): 0.49 ± 0.045

GCUGUCACCGGUGUAUUACCCUAGUGGUCGACCGGUCUGAUGAGUCUUAAAUUAGACGAAACAGC
FACS-Seq fitted mean (log10) (hypoxanthine [1]): 0.543 ± 0.057
normalized RNA/DNA level with ligand (log10) (hypoxanthine [2]): 1.92 ± 0.024
normalized RNA/DNA level without ligand (log10) (hypoxanthine [3]): 1.85 ± 0.035
FACS-Seq fitted mean (log10) (hypoxanthine [4]): 0.516 ± 0.066

GCUGUCACCGGUGUAUUACCCUAGUGGUCGACCGGUCUGAUGAGUCUAAAAGUAGACGAAACAGC
FACS-Seq fitted mean (log10) (hypoxanthine [1]): 0.21 ± 0.0047
normalized RNA/DNA level with ligand (log10) (hypoxanthine [2]): 1.854 ± 0.011
normalized RNA/DNA level without ligand (log10) (hypoxanthine [3]): 1.55 ± 0.032
FACS-Seq fitted mean (log10) (hypoxanthine [4]): 0.339 ± 0.09

GCUGUCACCGGUGUAUUACCCUAGUGGUCGACCGGUCUGAUGAGUCUAAACAGAGACGAAACAGC
FACS-Seq fitted mean (log10) (hypoxanthine [1]): -0.248 ± 0.031
normalized RNA/DNA level with ligand (log10) (hypoxanthine [2]): 1.77 ± 0.058
normalized RNA/DNA level without ligand (log10) (hypoxanthine [3]): 1.35 ± 0.055
FACS-Seq fitted mean (log10) (hypoxanthine [4]): 0.234 ± 0.03

GCUGUCACCGGUGUAUUACCCUAGUGGUCGACCGGUCUGAUGAGUCUAAACAAAGACGAAACAGC
FACS-Seq fitted mean (log10) (hypoxanthine [1]): 0.4127 ± 0.0021
normalized RNA/DNA level with ligand (log10) (hypoxanthine [2]): 1.902 ± 0.011
normalized RNA/DNA level without ligand (log10) (hypoxanthine [3]): 1.73 ± 0.022
FACS-Seq fitted mean (log10) (hypoxanthine [4]): 0.382 ± 0.014

GCUGUCACCGGUGUAUUACCCUAGUGGUCGACCGGUCUGAUGAGUCUCAAAGUAGACGAAACAGC
FACS-Seq fitted mean (log10) (hypoxanthine [1]): 0.529 ± 0.021
normalized RNA/DNA level with ligand (log10) (hypoxanthine [2]): 1.89 ± 0.0058
normalized RNA/DNA level without ligand (log10) (hypoxanthine [3]): 1.82 ± 0.033
FACS-Seq fitted mean (log10) (hypoxanthine [4]): 0.571 ± 0.0084

GCUGUCACCGGUGUAUUACCCUAGUGGUCGACCGGUCUGAUGAGUCUUAAAGGAGACGAAACAGC
FACS-Seq fitted mean (log10) (hypoxanthine [1]): 0.355 ± 0.035
normalized RNA/DNA level with ligand (log10) (hypoxanthine [2]): 1.84 ± 0.023
normalized RNA/DNA level without ligand (log10) (hypoxanthine [3]): 1.45 ± 0.05
FACS-Seq fitted mean (log10) (hypoxanthine [4]): 0.675 ± 0.094

GCUGUCACCGGUGUAUUACCCUAGUGGUCGACCGGUCUGAUGAGUCUUAAAGUAGACGAAACAGC
FACS-Seq fitted mean (log10) (hypoxanthine [1]): 0.334 ± 0.017
normalized RNA/DNA level with ligand (log10) (hypoxanthine [2]): 1.89 ± 0.05
normalized RNA/DNA level without ligand (log10) (hypoxanthine [3]): 1.54 ± 0.076
FACS-Seq fitted mean (log10) (hypoxanthine [4]): 0.708 ± 0.063

GCUGUCACCGGUGUAUUACCCUAGUGGUCGACCGGUCUGAUGAGUCUGAAAUGAGACGAAACAGC
FACS-Seq fitted mean (log10) (hypoxanthine [1]): 0.0921 ± 0.028
normalized RNA/DNA level with ligand (log10) (hypoxanthine [2]): 1.86 ± 0.075
normalized RNA/DNA level without ligand (log10) (hypoxanthine [3]): 1.44 ± 0.035
FACS-Seq fitted mean (log10) (hypoxanthine [4]): 0.497 ± 0.047

GCUGUCACCGGUGUAUUACCCUAGUGGUCGACCGGUCUGAUGAGUCUGAAAUAAGACGAAACAGC
FACS-Seq fitted mean (log10) (hypoxanthine [1]): 0.105 ± 0.023
normalized RNA/DNA level with ligand (log10) (hypoxanthine [2]): 1.92 ± 0.055
normalized RNA/DNA level without ligand (log10) (hypoxanthine [3]): 1.85 ± 0.028
FACS-Seq fitted mean (log10) (hypoxanthine [4]): 0.082 ± 0.037

GCUGUCACCGGUGUAUUACCCUAGUGGUCGACCGGUCUGAUGAGUCUCAACACAGACGAAACAGC
FACS-Seq fitted mean (log10) (hypoxanthine [1]): 0.465 ± 0.089
normalized RNA/DNA level with ligand (log10) (hypoxanthine [2]): 1.895 ± 0.0089
normalized RNA/DNA level without ligand (log10) (hypoxanthine [3]): 1.69 ± 0.047
FACS-Seq fitted mean (log10) (hypoxanthine [4]): 0.206 ± 0.043

GCUGUCACCGGUGUAUUACCCUAGUGGUCGACCGGUCUGAUGAGUCUGAAAGUAGACGAAACAGC
FACS-Seq fitted mean (log10) (hypoxanthine [1]): 0.233 ± 0.011
normalized RNA/DNA level with ligand (log10) (hypoxanthine [2]): 1.91 ± 0.022
normalized RNA/DNA level without ligand (log10) (hypoxanthine [3]): 1.752 ± 0.0063
FACS-Seq fitted mean (log10) (hypoxanthine [4]): 0.17 ± 0.018

GCUGUCACCGGUGUAUUACCCUAGUGGUCGACCGGUCUGAUGAGUCUGAACAGAGACGAAACAGC
FACS-Seq fitted mean (log10) (hypoxanthine [1]): 0.213 ± 0.041
normalized RNA/DNA level with ligand (log10) (hypoxanthine [2]): 1.8069 ± 0.00086
normalized RNA/DNA level without ligand (log10) (hypoxanthine [3]): 1.42 ± 0.061
FACS-Seq fitted mean (log10) (hypoxanthine [4]): 0.674 ± 0.014

GCUGUCACCGGUGUAUUACCCUAGUGGUCGACCGGUCUGAUGAGUCUGAACAAAGACGAAACAGC
FACS-Seq fitted mean (log10) (hypoxanthine [1]): 0.477 ± 0.021
normalized RNA/DNA level with ligand (log10) (hypoxanthine [2]): 1.91 ± 0.046
normalized RNA/DNA level without ligand (log10) (hypoxanthine [3]): 1.732 ± 0.0073
FACS-Seq fitted mean (log10) (hypoxanthine [4]): 0.62 ± 0.022

GCUGUCACCGGUGUAUUACCCUAGUGGUCGACCGGUCUGAUGAGUCUGAACACAGACGAAACAGC
FACS-Seq fitted mean (log10) (hypoxanthine [1]): 0.66 ± 0.029
normalized RNA/DNA level with ligand (log10) (hypoxanthine [2]): 1.95 ± 0.029
normalized RNA/DNA level without ligand (log10) (hypoxanthine [3]): 1.74 ± 0.024
FACS-Seq fitted mean (log10) (hypoxanthine [4]): 0.622 ± 0.049

GCUGUCACCGGUGUAUUACCCUAGUGGUCGACCGGUCUGAUGAGUCUAAAAUGAGACGAAACAGC
FACS-Seq fitted mean (log10) (hypoxanthine [1]): 0.362 ± 0.024
normalized RNA/DNA level with ligand (log10) (hypoxanthine [2]): 1.857 ± 0.017
normalized RNA/DNA level without ligand (log10) (hypoxanthine [3]): 1.51 ± 0.044
FACS-Seq fitted mean (log10) (hypoxanthine [4]): 0.671 ± 0.053

GCUGUCACCGGUGUAUUACCCUAGUGGUCGACCGGUCUGAUGAGUCUAAAAUUAGACGAAACAGC
FACS-Seq fitted mean (log10) (hypoxanthine [1]): 0.401 ± 0.01
normalized RNA/DNA level with ligand (log10) (hypoxanthine [2]): 1.93 ± 0.04
normalized RNA/DNA level without ligand (log10) (hypoxanthine [3]): 1.86 ± 0.041
FACS-Seq fitted mean (log10) (hypoxanthine [4]): 0.491 ± 0.064
